Substitutions are numbered along the chain they refer to.
B1: antibody 48 (antibody, V domains shown)
VH: QVQLQQSGTELVRPGTSVKVSCKASGYAFTNYLIEWVKQRPGQGLEWIGVINPGSGFTKYNEKFKGKATLTADKSSSTVYMHLSSLTSEDSAVYFCARGLYRAMDYWGQGTSVTVSS
VL: DIQMTQSPASQSASLGESVTITCLASQTIATWLAWYQQKPGKSPQLLIYGATTLADGVPSRFSGGGSGTKFSFKISSLQAEDFVSYYCQQLYSTPYTFGGGTKLEIK
notes: mouse IgG, kappa light chain; also called clone #48; purified antibody 48
B2: antibody 50 (antibody, V domains shown)
VH: B1 VH with T9A, T16A, T30S, V79A, H82Q
VL: B1 VL with A30G, G50A, T52A, T53S, S85N, L91I
notes: mouse IgG, kappa light chain; also called clone #50; purified antibody 50

Target: T1, hiR2-FL-I477M-T7 (human, UniProt Q6PJF5 1-856)
T1 sequence: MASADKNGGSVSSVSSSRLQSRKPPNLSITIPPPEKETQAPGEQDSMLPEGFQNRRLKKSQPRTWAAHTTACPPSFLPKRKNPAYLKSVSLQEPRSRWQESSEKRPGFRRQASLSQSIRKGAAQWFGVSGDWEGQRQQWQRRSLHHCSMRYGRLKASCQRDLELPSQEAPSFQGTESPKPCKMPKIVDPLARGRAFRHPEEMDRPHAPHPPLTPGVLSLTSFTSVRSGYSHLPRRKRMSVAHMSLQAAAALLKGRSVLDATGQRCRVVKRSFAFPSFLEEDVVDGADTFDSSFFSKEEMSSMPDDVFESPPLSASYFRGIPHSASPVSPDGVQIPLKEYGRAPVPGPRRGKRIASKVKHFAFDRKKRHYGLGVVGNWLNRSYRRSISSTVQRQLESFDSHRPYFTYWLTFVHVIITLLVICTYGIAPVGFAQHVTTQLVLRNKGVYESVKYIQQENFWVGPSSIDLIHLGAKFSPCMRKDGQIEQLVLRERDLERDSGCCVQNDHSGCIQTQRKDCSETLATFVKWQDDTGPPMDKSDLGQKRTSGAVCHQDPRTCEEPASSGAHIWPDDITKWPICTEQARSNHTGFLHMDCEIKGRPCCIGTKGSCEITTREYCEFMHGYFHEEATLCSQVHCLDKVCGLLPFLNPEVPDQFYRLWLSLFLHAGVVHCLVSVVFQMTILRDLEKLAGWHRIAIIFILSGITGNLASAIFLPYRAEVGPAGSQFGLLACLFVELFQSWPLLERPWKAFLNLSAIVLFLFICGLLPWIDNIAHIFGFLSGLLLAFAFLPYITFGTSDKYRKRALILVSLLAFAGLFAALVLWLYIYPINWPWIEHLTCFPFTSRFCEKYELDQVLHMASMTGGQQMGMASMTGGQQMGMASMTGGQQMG
Test: FACS, MEF-DKO cells, 3 µg/ml
Description: In brief, immortalized MEF-DKO-hiR2-FL-A431S-T7, MEF-DKO-hiR2-FL-V434E-T7, MEF-DKO-hiR2-FL-T436V-T7, MEF-DKO-hiR2-FL-Q437D-T7, MEF-DKO-hiR2-FL-L438S-T7, MEF-DKO-hiR2-FL-S448N-T7, MEF-DKO-hiR2-FL-I452V-T7, MEF-DKO-hiR2-FL-I464E-T7, MEF-DKO-hiR2-FL-D465A-T7, MEF-DKO-hiR2-FL-I477M-T7, MEF-DKO-hiR2-FL-K479Q-T7, MEF-DKO-hiR2-FL-G481P-T7, MEF-DKO-hiR2-FL-I483V-T7, MEF-DKO-hiR2-FL-E484H-T7, MEF-DKO-hiR2-FL-Q485S-T7, MEF-DKO-hiR2-FL-L486F-T7, MEF-DKO-hiR2-FL-V487I-T7, MEF-DKO-hiR2-FL-R489S-T7, MEF-DKO-hiR2-FL-E490A-T7, MEF-DKO-hiR2-FL-D492E-T7, MEF-DKO-hiR2-FL-L493R-T7, MEF-DKO-hiR2-FL-R495K-T7 and MEF-DKO-hiR2-FL-D496H-T7 cells were harvested with 10 mM EDTA in PBS, washed and resuspended in FACS buffer (PBS, 3% FBS, 0.05% sodium azide), and seeded in Nunc U-bottom 96-well plates (Thermo Fisher Scientific, USA) at approximately 1×10⁵ cells per well. To pellet cells and remove supernatants, the plates were centrifuged at 1,500 rpm and 4° C. for 3 minutes. For primary staining, cells were resuspended in 100 μl per well of either FACS buffer alone (controls) or the purified antibodies 3, 5, 16, 22, 34, 42, 43, 44, 48, and 50 of the invention at 3 μg/ml in FACS buffer and incubated on ice for 1 hour. Afterwards, plates were centrifuged at 1,500 rpm and 4° C. for 3 minutes and washed twice with 200 μl per well of FACS buffer. For secondary staining, cells were spun down and resuspended in 100 μl per well of PE-conjugated goat anti-mouse IgG F(ab′)2 detection fragment (Dianova, Germany) diluted 1:100 in FACS buffer. Protected from light, the cell suspensions were incubated on ice for 1 hour. Plates were then centrifuged at 1,500 rpm and 4° C. for 3 minutes and washed three times with 200 μl per well of FACS buffer. Finally, cells were resuspended in 150 μl per well of FACS buffer and analyzed using a BD Accuri™ C6 Plus flow cytometer (Becton Dickinson, Germany).

Row | Binder | loss of binding vs wild type
1 | B1 | ≥ 30%
2 | B2 | ≥ 30%
